Drawing on PMC2063867, this text covers other: percent increase over reference for 1 substance.

For this experiment, the target named is FAK. The experiment in a line: anti-GFP co-IP, anti-myc blot. As to conditions: reference: WT-paxillin-GFP; sites S273.

Sequence of paxillin (P49024 whole entry, looked up, stated change not applied): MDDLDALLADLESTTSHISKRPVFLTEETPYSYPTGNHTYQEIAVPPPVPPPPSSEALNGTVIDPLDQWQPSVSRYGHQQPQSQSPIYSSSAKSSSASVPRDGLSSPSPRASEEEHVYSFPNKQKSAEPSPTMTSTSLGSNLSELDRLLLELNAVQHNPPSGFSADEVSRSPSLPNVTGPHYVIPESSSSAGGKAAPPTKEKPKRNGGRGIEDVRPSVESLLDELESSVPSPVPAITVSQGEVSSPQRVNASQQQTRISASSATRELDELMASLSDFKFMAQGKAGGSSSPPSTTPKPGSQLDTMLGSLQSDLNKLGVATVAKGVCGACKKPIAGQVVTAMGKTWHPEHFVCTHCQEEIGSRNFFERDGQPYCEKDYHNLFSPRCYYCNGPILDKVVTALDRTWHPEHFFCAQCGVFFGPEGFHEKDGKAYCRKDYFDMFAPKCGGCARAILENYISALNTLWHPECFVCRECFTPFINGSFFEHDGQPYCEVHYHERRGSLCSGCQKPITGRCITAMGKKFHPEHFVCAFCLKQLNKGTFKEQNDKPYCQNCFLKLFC

Substance “paxillin (from UniProt P49024) S273A-paxillin-GFP” had an other: percent increase over reference of 25%.
